Values quoted from earlier work as cited in article PMC7390727.
Read-outs that look alike come from different tables or passages of the source.

Tests used:
[1] = target: chemoreceptor C-terminal pentapeptide (Salmonella typhimurium)
[2] = target: chemoreceptor C-terminal pentapeptide (Salmonella typhimurium); remark: listed apart in the source

Substance	Kd [1] [µM]	Kd [2] [µM]
CheB (from UniProt P04042)	160	–
CheR (from UniProt P07801)	–	2
